Assay [1] has as its target carcinoembryonic antigen (CEA) (UniProt P06731). Put plainly: competition RIA on CEA coated beads, transfected CHO cell supernatant.
Assay [2] shares this target. As to the kind of experiment: competition RIA, 125I-labelled A5B7 IgG1 on CEA coated beads, purified material.
The target is the same in assay [3]. As to the kind of experiment: competition RIA on CEA coated beads, transfected CHO cell supernatant; apparent A5B7 concentration divided by assembly assay result.
The target is the same in assay [4]. Put plainly: competition RIA on CEA coated beads.

Chain of carcinoembryonic antigen (CEA) (P06731 35-685 limits assumed): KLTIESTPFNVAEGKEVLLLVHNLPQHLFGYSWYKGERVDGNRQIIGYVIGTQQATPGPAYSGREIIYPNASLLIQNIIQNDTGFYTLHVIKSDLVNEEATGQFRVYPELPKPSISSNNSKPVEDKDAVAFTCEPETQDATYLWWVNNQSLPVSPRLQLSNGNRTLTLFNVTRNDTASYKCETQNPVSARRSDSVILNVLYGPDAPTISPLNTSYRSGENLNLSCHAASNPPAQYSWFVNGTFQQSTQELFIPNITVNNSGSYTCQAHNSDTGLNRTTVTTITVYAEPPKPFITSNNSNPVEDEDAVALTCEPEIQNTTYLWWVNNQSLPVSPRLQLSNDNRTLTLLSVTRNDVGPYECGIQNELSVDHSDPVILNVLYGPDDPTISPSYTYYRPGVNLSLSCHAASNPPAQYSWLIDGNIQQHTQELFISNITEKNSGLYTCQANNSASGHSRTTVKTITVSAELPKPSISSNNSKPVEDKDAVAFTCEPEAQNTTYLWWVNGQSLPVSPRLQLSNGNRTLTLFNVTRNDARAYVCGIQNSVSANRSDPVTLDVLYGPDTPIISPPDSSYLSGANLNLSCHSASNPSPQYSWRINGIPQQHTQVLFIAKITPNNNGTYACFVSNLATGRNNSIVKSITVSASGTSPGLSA

For chimeric A5B7 IgG1 whole antibody, the % Relative Potency in assay [1] and in assay [2] was 100% in each case. For the same substance, the Specific activity in assay [3] worked out at 1.17.
Take murine A5B7 F(ab')2: the % Relative Potency in assay [2] was found to be 97%.
murine A5B7 Fab' (alkylated) returned a % Relative Potency in assay [2] of 8%. In assay [4], this substance registered a fold reduced potency against murine A5B7 IgG of 10 fold.

Values taken from patent publication WO1992001059A1.
